Results published in US20200199233A1.
“And” between values parts separate entries of the source, which are not always exact repeats. Equal values may be shown once. Each block holds one substance with its values, some of them ahead of it.

Legend:
[1] = biological target: human MUC16 on cells (OVCAR-3, PEO1, 3T3/hβ2M/HLA-A2/NYESO1p/hMUC16) (human); assay: cell-based or functional assay
[2] = biological target: human MUC16 on cells (OVCAR-3, PEO1, 3T3/hβ2M/HLA-A2/NYESO1p/hMUC16) (human); assay: flow cytometry ('FACS binding', MFI_PE) on cells. The sheet names no cell line; the legend of FIGS. 2A-2I names PEO1 (endogenous MUC16). The unit is taken from the axis, Log10 (M).
mCD28.mmh (mouse) = assay: SPR (Biacore), 37 C, antibody captured by anti-human Fc, mCD28.mmh injected
Sequence of mCD28.mmh (mouse) (chain, as listed by the source limits assumed): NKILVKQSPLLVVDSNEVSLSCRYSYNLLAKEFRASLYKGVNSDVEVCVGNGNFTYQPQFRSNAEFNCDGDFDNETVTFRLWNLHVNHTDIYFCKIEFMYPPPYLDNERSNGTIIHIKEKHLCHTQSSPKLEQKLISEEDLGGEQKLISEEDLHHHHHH

hMUC16.mmh (human) = assay: SPR (Biacore), 37 C, antibody captured by anti-human Fc, hMUC16.mmh injected
Sequence of hMUC16.mmh (human) (chain, as listed by the source limits assumed): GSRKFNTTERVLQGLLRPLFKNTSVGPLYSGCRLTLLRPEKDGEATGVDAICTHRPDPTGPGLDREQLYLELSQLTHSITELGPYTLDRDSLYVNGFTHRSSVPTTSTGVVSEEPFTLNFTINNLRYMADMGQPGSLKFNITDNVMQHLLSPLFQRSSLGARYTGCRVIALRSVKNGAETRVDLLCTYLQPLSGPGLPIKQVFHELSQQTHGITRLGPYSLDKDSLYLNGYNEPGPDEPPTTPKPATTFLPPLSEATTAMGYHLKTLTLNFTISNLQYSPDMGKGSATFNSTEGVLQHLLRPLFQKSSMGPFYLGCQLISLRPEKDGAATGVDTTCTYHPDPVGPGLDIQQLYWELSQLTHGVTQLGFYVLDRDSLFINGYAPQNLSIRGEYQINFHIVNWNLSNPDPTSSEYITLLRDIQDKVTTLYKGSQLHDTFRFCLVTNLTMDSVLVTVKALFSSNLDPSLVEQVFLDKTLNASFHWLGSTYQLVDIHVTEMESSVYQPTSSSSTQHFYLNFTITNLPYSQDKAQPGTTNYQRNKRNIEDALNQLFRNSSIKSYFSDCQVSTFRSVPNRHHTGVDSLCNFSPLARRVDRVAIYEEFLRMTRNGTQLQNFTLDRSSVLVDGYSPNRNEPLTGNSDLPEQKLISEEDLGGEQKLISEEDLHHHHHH

[3] = biological target: human MUC16 on cells (OVCAR-3, PEO1, 3T3/hβ2M/HLA-A2/NYESO1p/hMUC16) (human); assay: flow cytometry ('FACS binding', MFI_PE) on cells, the same assay as the other two curves. The control's curve is flat at baseline, so this is a fit value without a response. The unit is taken from the axis, Log10 (M).

EC50 [2]: 1.84 nM
Substance: REGN4018 (bispecific antibody)
PEO1 Kill EC50 [M], human PBMCs, MUC16xCD3 as single agent [1]: 1.27e-10 M | PEO1 Kill EC50 [M], human PBMCs, MUC16xCD3 titrated in the presence of bs24963D [1]: 1.07e-10 M and 5.31e-11 M | PEO1 min. % viability, human PBMCs, MUC16xCD3 as single agent [1]: 57% | PEO1 min. % viability, human PBMCs, MUC16xCD3 titrated in the presence of bs24963D [1]: 9.8% | PEO1 min. % viability, human PBMCs, MUC16xCD3 titrated in the presence of bs32897D [1]: 17.7%

Kd (mCD28.mmh (mouse)): 3.76 nM | T½ (mCD28.mmh (mouse)): 2.48 h | koff (mCD28.mmh (mouse)): 7.77e-05 s⁻¹ | kon (mCD28.mmh (mouse)): 20700 M⁻¹ s⁻¹ | 90 nM hMUC16.mmh Bind (RU) (hMUC16.mmh (human)): 513 RU | Kd (hMUC16.mmh (human)): 0.749 nM | T½ (hMUC16.mmh (human)): 0.408 h | koff (hMUC16.mmh (human)): 0.000472 s⁻¹ | kon (hMUC16.mmh (human)): 629000 M⁻¹ s⁻¹
Substance: REGN4615 (bispecific antibody)

EC50 [3]: 2.27 nM
Substance: CD3-BINDING CONTROL (bispecific antibody)
